Test results published in patent publication US9176064B2, “Bisubstrate fluorescent probes for protein kinase CK2” (University of Tartu, priority 2012, dated 2015).
Where a SMILES comes first, the peptide text is derived from it. [ ]: non-standard residue; d: D form. The star is where a group is joined. X1 = O=C(CCCCCCCn1cnc2c(Br)c(Br)c(Br)c(Br)c21)*

Tests used:
Assay in all cases: Kinase panel residual activity
Format in all cases: biochemical
Details in all cases: compound at 1 micromolar
CAMK1 = CAMK1 (Homo sapiens, UniProt Q14012)
CAMK1, sequence (Q14012 whole entry): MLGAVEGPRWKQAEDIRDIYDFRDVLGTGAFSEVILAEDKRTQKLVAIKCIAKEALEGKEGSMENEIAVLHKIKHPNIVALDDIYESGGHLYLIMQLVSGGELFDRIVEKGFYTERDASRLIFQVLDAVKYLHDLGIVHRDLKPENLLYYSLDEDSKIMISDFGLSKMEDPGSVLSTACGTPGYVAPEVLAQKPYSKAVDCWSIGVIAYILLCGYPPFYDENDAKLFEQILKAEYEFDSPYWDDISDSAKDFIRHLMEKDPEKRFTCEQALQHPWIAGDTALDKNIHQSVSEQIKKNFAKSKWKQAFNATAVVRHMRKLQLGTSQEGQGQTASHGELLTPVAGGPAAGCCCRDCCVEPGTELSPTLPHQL

CSK = CSK (Homo sapiens, UniProt P41240)
CSK, sequence (P41240 whole entry, species assumed): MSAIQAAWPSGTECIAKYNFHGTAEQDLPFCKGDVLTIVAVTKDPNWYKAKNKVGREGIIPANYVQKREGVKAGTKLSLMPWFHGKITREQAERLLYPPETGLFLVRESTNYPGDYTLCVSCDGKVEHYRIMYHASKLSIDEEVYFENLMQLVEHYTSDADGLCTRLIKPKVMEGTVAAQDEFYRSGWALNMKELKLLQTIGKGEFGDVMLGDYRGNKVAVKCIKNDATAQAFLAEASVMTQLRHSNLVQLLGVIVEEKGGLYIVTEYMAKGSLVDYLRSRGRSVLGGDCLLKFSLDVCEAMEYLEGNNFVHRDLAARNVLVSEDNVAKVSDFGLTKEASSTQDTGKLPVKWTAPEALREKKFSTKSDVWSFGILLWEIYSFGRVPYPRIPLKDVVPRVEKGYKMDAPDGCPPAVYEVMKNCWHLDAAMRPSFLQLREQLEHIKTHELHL

IRAK4 = target: T1, IRAK4 (Homo sapiens, UniProt Q9NWZ3)
T1 sequence (Q9NWZ3 1-460): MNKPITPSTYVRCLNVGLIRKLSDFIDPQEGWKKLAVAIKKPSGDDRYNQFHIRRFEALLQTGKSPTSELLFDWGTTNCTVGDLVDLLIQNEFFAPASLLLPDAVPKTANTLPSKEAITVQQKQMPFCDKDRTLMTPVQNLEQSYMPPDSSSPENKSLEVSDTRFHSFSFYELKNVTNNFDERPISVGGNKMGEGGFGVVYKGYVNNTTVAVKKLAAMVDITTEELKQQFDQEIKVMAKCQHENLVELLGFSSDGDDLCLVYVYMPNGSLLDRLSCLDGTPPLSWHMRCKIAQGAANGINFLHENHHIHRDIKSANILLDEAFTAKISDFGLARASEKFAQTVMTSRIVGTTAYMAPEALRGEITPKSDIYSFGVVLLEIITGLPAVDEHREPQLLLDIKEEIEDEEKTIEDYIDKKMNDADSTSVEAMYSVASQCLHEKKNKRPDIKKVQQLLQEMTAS

PKBa = PKBa (Homo sapiens, UniProt P31749)
PKBa, sequence (P31749 whole entry): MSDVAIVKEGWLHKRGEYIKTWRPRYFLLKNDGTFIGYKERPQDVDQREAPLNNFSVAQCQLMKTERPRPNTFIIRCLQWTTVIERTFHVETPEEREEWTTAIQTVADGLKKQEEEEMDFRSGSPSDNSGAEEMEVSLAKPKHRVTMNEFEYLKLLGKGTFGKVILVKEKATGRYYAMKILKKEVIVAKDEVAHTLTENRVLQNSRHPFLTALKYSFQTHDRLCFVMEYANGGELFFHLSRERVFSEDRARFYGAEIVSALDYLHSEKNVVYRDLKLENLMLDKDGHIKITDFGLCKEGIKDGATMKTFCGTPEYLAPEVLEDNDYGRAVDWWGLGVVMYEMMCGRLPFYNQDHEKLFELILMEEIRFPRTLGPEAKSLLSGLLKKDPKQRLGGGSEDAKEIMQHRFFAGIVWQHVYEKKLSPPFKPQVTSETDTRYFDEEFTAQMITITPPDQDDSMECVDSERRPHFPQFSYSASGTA

TAK1 = target: T2, TAK1 (Homo sapiens, UniProt O43318)
T2 sequence (O43318 1-303 limits assumed): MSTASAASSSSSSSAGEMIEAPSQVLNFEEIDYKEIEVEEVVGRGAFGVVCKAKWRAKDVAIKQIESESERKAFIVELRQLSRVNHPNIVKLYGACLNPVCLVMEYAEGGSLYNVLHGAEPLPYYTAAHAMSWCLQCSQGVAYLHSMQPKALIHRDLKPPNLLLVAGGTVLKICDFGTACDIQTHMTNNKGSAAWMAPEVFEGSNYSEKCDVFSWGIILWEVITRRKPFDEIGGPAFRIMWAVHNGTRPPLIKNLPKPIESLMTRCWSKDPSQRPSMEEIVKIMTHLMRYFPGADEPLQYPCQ

MELK = MELK (Homo sapiens, UniProt Q14680)
MELK, sequence (Q14680 whole entry, species assumed): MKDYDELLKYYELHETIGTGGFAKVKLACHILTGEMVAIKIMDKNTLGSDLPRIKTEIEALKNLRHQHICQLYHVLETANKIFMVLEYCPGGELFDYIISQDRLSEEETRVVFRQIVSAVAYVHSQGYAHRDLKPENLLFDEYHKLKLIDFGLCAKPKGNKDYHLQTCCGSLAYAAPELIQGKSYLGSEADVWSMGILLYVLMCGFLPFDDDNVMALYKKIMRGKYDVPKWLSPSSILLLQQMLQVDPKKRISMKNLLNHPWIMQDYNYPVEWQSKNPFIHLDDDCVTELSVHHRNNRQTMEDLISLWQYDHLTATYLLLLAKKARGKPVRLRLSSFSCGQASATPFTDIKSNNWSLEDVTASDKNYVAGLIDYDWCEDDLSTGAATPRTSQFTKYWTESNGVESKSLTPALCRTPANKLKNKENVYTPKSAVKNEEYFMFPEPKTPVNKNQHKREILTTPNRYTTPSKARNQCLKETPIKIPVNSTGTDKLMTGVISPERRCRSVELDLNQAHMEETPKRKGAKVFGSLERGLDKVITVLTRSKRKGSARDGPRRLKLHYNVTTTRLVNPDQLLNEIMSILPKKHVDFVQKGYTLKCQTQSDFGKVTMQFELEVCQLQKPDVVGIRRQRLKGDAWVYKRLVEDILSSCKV

YES1 = YES1 (Homo sapiens, UniProt P07947)
YES1, sequence (P07947 whole entry, species assumed): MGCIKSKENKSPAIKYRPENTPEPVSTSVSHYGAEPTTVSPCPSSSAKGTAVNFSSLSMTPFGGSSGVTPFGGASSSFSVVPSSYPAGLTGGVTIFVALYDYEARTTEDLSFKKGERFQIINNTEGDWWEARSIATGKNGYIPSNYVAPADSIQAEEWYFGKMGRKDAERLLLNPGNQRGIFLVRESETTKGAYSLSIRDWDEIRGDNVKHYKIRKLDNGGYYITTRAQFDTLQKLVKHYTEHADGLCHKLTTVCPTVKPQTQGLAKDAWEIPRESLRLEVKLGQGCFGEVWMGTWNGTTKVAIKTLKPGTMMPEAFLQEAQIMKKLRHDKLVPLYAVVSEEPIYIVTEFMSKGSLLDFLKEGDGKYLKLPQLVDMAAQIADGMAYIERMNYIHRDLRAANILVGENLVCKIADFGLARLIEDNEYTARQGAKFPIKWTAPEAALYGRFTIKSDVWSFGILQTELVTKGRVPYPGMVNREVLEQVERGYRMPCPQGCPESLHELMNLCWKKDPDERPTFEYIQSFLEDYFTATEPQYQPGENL

SIK2 = SIK2 (Homo sapiens, UniProt Q9H0K1)
SIK2, sequence (Q9H0K1 whole entry, species assumed): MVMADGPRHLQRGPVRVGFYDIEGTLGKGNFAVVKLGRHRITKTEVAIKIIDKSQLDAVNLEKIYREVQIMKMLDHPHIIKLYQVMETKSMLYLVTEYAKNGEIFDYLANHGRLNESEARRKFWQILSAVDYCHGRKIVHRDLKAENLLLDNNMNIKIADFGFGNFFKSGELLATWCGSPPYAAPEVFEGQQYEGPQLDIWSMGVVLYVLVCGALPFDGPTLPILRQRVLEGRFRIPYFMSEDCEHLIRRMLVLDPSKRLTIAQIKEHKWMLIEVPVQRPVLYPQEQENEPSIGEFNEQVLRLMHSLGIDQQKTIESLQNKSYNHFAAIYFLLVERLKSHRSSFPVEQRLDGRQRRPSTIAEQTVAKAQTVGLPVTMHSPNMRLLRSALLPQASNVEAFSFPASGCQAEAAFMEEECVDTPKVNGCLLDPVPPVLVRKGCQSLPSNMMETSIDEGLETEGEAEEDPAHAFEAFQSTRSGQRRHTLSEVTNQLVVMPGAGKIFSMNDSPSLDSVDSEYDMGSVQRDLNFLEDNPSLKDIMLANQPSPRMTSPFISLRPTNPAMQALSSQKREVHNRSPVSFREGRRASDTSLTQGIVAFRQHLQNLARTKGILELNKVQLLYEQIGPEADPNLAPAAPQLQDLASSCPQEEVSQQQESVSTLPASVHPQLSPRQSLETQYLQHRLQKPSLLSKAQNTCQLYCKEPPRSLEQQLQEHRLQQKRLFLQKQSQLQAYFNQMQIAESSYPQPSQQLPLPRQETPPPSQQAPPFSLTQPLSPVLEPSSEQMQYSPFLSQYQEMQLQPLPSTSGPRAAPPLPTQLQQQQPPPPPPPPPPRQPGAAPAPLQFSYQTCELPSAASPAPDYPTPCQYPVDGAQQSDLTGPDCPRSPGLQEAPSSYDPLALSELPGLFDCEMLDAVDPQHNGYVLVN

CHK2 = CHK2 (Homo sapiens, UniProt O96017)
CHK2, sequence (O96017 whole entry, species assumed): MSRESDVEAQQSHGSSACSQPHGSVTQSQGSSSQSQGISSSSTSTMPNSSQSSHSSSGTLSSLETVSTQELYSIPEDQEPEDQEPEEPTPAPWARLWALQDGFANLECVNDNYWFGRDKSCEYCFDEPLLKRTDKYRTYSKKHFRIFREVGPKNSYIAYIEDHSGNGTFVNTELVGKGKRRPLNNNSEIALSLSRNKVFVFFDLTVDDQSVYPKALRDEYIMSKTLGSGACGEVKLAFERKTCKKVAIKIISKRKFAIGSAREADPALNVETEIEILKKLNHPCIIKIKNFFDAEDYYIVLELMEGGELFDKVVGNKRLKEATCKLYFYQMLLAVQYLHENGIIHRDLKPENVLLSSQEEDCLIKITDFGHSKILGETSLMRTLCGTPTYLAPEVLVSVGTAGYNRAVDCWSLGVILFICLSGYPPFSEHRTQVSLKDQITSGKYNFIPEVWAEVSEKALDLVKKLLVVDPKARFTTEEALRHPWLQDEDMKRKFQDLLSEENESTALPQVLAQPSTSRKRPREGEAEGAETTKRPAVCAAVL

ERK8 = target: T3, ERK8 (Homo sapiens, UniProt Q8TD08)
T3 sequence (Q8TD08 1-544): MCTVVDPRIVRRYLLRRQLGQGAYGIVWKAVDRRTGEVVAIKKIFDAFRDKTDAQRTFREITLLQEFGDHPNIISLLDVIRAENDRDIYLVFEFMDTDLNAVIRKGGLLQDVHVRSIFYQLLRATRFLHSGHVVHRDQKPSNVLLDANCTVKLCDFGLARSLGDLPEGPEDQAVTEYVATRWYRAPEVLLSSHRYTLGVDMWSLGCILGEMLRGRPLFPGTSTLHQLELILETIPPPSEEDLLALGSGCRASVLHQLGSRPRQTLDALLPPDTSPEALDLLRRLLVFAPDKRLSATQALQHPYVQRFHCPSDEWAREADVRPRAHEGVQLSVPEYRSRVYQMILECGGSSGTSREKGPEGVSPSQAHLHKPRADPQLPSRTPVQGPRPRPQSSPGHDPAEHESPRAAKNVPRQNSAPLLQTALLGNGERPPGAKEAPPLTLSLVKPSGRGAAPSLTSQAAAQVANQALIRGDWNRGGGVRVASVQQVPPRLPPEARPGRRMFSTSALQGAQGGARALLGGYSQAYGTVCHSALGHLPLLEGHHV

CDK2-Cyclin A = CDK2-Cyclin A (Homo sapiens, UniProt P24941)
TSSK1 = target: T4, TSSK1 (Homo sapiens, UniProt Q9BXA7)
T4 sequence (Q9BXA7 1-367): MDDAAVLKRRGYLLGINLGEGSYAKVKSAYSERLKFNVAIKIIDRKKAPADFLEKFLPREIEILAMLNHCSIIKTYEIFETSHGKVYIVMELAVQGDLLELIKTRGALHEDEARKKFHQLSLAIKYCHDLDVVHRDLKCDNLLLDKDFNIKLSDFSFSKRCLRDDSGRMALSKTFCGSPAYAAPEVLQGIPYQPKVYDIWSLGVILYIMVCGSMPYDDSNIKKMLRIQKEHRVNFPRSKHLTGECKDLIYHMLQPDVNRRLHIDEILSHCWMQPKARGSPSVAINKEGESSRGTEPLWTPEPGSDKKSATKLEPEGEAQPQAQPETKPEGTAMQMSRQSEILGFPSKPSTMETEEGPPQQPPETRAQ

ERK2 = ERK2 (Homo sapiens, UniProt P28482)
ERK2, sequence (P28482 whole entry, species assumed): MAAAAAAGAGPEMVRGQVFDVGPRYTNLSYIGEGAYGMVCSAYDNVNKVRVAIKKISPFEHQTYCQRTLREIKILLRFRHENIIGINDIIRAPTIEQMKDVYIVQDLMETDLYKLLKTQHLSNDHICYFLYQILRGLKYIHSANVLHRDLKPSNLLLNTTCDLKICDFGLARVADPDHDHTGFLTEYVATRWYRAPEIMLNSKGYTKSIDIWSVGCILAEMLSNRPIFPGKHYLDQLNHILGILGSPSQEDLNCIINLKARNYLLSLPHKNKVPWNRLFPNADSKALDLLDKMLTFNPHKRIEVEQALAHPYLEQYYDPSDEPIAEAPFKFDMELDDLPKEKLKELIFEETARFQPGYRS

SMILES: NCCCC[C@H](NC(=O)[C@H](CC(=O)O)NC(=O)[C@H](CC(=O)O)NC(=O)[C@H](CC(=O)O)NC(=O)[C@H](CC(=O)O)NC(=O)[C@H](CC(=O)O)NC(=O)[C@@H](CC(=O)O)NC(=O)CCCCCCCn1cnc2c(Br)c(Br)c(Br)c(Br)c21)C(=O)O [TBBI-OcA-(D-Asp)-(L-Asp)5-(L-Lys)-OH] (X1-[dD]DDDDDK-OH)
- remaining activity at 1 µM (CAMK1): 105%
- remaining activity at 1 µM (CSK): 92%
- remaining activity at 1 µM (IRAK4): 118%
- remaining activity at 1 µM (PKBa): 73%
- remaining activity at 1 µM (TAK1): 62%
- remaining activity at 1 µM (MELK): 92%
- remaining activity at 1 µM (YES1): 103%
- remaining activity at 1 µM (SIK2): 74%
- remaining activity at 1 µM (CHK2): 101%
- remaining activity at 1 µM (ERK8): 25%
- remaining activity at 1 µM (CDK2-Cyclin A): 64%
- remaining activity at 1 µM (TSSK1): 86%
- remaining activity at 1 µM (ERK2): 92%
